One test addresses T1, NPRA (Rattus norvegicus, UniProt P18910).
T1 construct: endogenous in cells; host or cells: primary neonatal rat cardiac fibroblasts, transfected with insertless vector or sNRF^(806-900)
T1 sequence (P18910 29-1057): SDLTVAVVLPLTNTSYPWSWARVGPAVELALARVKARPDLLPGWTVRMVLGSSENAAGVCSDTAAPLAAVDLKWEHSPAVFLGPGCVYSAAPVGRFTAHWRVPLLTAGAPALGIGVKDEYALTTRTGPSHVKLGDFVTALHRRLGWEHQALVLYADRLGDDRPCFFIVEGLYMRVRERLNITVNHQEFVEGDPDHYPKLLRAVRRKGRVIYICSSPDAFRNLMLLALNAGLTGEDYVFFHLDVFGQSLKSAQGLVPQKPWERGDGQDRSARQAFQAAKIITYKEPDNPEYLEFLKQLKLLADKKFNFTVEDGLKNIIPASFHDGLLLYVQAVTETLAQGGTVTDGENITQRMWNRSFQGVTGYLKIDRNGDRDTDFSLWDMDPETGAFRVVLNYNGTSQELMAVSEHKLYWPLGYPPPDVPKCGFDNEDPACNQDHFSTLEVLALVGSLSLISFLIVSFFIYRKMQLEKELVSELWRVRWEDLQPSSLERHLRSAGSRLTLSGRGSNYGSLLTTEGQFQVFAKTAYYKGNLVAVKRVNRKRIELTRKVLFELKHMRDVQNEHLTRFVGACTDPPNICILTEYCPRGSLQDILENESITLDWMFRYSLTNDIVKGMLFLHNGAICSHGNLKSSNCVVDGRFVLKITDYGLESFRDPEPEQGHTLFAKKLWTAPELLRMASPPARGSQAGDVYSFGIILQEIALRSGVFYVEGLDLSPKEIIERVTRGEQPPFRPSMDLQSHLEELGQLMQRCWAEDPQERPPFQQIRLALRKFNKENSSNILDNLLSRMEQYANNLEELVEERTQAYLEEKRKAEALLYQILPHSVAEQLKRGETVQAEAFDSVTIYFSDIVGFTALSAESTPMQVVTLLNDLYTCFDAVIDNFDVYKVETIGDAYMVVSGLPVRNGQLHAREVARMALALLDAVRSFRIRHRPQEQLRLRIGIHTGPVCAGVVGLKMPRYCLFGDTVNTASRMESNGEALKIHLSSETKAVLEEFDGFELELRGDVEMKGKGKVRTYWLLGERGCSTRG
The experiment in a line: Total cGMP by enzyme immunoassay in NP-treated CFs. In kind it is cell-based. Conditions: fragment expressed alone, no ANP; 100 μM IBMX. On the procedure:
The ability of sNRF^(806-900) to reduce or inhibit downstream effects by modulating the intrinsic guanylyl cyclase activity of NPRA, was determined by measuring total cGMP levels in NP-treated CFs. CFs were transfected with insertless vector or sNRF^(806-900) as described in Example 7 and treated with ANP (100 nM) for 15 minutes. cGMP concentration was determined by enzyme immunoassay using a commercial kit (Enzyme immunoassay Biotrak EIA System, Amersham Biosciences). In all experiments, cells were treated with 100 μM IBMX with or without ANP.

The test system of test [1] is cardiac fibroblasts (CFs). As to the kind of experiment: bFGF-induced α-SMA protein expression in CFs (Western blot). Format: cell-based, rat. Conditions: fragment expressed; 10 ng/ml FGF 48 hours; 100 nM ANP. The method, then: NP's ability to inhibit growth factor-induced CF differentiation into myofibroblasts was determined as follows. CFs were transiently transfected with insertless pcDNA3 vector or pcDNA3 encoding sNRF^(806-900) (see Example 7). The transfected CFs were then treated for 48 hours with 10 ng/ml basic fibroblast growth factor (FGF; Sigma-Aldrich #F0291) in the presence or absence of 100 nM ANP. Alpha-smooth muscle actin (α-SMA) protein expression, the principal marker of CF differentiation, was assessed by Western blotting and immunofluorescence microscopy. Vimentin staining was used as a loading control because it is expressed equally in fibroblasts and transdifferentiated myofibroblasts.
(A western blot detects proteins with antibodies after separation by electrophoresis.)

The target in another test is T2, full-length NPRA (Homo sapiens, UniProt P16066).
T2 sequence (P16066 33-1061): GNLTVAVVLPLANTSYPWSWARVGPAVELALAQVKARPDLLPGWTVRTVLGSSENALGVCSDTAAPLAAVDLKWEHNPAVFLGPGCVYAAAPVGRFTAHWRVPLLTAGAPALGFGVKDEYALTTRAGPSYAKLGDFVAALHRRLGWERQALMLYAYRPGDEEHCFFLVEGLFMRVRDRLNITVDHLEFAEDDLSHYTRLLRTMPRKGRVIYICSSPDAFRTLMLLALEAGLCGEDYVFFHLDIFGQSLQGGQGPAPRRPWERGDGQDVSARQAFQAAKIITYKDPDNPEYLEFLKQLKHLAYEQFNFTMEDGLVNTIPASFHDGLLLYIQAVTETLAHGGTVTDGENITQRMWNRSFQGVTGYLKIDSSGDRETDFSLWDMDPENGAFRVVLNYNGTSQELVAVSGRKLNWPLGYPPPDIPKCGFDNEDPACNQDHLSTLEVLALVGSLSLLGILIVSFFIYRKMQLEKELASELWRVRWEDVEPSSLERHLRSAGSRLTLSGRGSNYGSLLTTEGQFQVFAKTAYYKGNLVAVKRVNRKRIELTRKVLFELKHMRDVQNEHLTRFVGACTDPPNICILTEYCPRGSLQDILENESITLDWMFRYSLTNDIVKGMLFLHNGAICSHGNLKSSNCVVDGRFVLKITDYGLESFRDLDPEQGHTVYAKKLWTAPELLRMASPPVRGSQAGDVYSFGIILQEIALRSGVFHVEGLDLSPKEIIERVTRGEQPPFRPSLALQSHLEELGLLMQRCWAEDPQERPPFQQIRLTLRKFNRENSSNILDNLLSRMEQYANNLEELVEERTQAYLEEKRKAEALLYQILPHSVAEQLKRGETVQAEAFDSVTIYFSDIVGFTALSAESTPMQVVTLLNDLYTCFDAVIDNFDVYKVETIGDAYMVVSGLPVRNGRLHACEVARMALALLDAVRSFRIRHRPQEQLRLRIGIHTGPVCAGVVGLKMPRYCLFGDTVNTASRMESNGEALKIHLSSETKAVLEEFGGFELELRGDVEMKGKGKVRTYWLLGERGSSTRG
The experiment in a line: Association of NPRA fragment with full-length NPRA. Conditions: in the presence or absence of activated PKG. Format: binding.

On to “sNRF^(806-900): intracellular NPRA fragment, residues 806-900, excludes the cyclase-containing domain; shortest fragment observed to associate with PKG”, for which the cGMP levels entry in the test with NPRA is “significantly increased cGMP levels”. Also, the “ANP's inhibitory effect on growth factor-induced α-SMA protein expression” value in test [1] is listed as “reversed ANP's inhibitory effect”. Further, the “association with full-length NPRA” value with full-length NPRA was “failed to associate with full-length NPRA”.

(Values after patent US7943296B2, “Methods of screening using a natriuretic peptide receptor” (Oregon Health & Science University, priority 2005, dated 2011).)
